Test results: publication doi:10.1101/2025.11.17.688911

Target: full-length (FL) human MAP9 (GFP::Human MAP9::strepII) (human) (UniProt Q49MG5)
Sequence (Q49MG5 whole entry): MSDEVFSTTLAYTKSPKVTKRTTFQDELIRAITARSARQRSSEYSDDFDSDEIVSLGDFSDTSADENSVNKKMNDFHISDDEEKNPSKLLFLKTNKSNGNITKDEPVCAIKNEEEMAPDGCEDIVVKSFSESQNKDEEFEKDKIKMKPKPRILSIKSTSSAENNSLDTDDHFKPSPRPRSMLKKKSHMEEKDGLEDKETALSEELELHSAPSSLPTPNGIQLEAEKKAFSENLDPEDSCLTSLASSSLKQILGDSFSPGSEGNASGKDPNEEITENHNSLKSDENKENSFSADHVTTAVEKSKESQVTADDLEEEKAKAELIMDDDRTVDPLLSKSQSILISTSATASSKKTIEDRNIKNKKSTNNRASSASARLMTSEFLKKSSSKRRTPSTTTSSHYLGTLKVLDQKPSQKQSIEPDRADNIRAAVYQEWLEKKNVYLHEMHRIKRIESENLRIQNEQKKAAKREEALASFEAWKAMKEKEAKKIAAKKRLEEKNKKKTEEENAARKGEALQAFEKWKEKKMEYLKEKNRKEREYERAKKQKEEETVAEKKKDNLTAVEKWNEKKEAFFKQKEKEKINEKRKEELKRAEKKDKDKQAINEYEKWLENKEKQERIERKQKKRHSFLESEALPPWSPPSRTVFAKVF

Substance: FL KIF1A (Human KIF1A::yBBR::strepII) (from UniProt Q12756 1-1690) (natural protein)
- run frequency of FL KIF1A on MTs decorated with MAP9 at low concentrations (<60 nM); slightly inhibited at higher concentrations: 2 fold
